# In patent US10245299B2, “Autoassembling peptides for the treatment of pulmonary bulla” (3-D MATRIX, LTD., priority 2014, dated 2019):
# Legend:
# [1] = Rheology of peptides mixed with cation/anion solutions; assay type: physicochemical
# Experimental: In a rheological comparison of 2.5% RADA16 and 2.5% RADA16+NaCl, KCl, and CaCl2, solutions of 0.5% RADA16 mixed with 0.005, 0.05, 0.125, 0.25, 0.5, and 1 M NaCl, KCl, and CaCl2 were prepared. The anion, chloride (Cl−), was kept the same to observe the effect of the cations, sodium (Na+), potassium (K+), and calcium (Ca2+). FIG. 21 provides a basic understanding of how varying the cations of a salt solution effects the viscoelastic properties and the stiffness of self-assembling peptides. […] This should be because Ca has […] higher ionic strength than Na and K at the same molar concentrations. Therefore, influence of salts on the peptide solution is more related to their ionic strength rather than their molar concentration, as shown in FIGS. 17-18 and Table 2a-c. In some embodiments, there is a correlation between the properties of the peptide solutions with salts based on the concentration of the salts.
# Rheological measurements of stiffness of 2.5% RADA16 and 2.5% RADA16+0.25 M CaCl2 was evaluated.
# Rheological measurements of reversibility of 0.5% RADA16 solution with +0.125, 0.25, and 0.5 M CaCl2 were evaluated. Solutions of 0.5% RADA16 mixed with 0.125, 0.25, and 0.5 M CaCl2 were prepared. The structure of the self-assembled peptide solution were disrupted thoroughly by application of mechanical stress through vortexing and sonication. The mixtures were placed at room temperature for 48 hours to allow self-assembly to take place. […] FIG. 23a presents raw rheological data of the peptide solution with salts and the perturbed peptide solution while FIG. 23b provides a comparison of stiffness of the control peptide solution and the perturbed peptide solution.
# Rheological measurements of gelation kinetics of 0.5% RADA16+NaCl, KCl, and CaCl2 were evaluated. A solution of 0.5% RADA16 was prepared and gelation kinetics were observed by treatment with several cations (e.g. Na, […], K) and anions (e.g. Cl, CO3, PO4, SO4). It was determined how long it will take for the peptide mixtures to gel and how to control that gelation time by varying the cation/anion type and concentration. […] In vivo and in vitro qualitative experiments and the resulting observations were supportive of these conclusions.
# The two gels were: (1) a combination of the self-assembling peptide with a well-known cation/anion solution, Ringer's Solution (pH 5.3), used in the medical field and (2) a combination of the self-assembling peptide with a well-known contrast agent, indigo carmine, which is a dye solution containing sulfate (anion) and sodium (cation) ions. Indigo carmine contains indigoindisulfonate sodium (C16H8N2Na2O8S2), water, and sodium citrate […] for pH adjustment. Using indigo carmine powder, a 1% solution was prepared for use in experimentation. This corresponds to 10 mg/1 ml of water. The concentration of indigo carmine solution used in experimentation was 0.00585% in water.
# The rheological comparisons of these mixtures and the visualization of the gels can be observed in FIG. 24a-24c. […] The concentration of the contrast agent or cation/anion mixture and peptide hydrogel that were mixed were based on an understanding of using cations and anions as described herein. […] FIG. 24C presents a comparison of stiffness of RADA16 and RADA16 mixed with Ringer's Solution.
# [2] = Gelation kinetics of pH adjusted peptides, time sweep with DMEM; assay type: physicochemical
# Experimental: The effect of pH level on the properties of gelation kinetics was evaluated to identify optimized pH levels for the peptides as described herein. Fast gelation kinetics of PuraMatrix® and other peptides within body fluid may generally improve its function and response time for various clinical applications. The pH level may impart response time to begin gelation when treated with simulated body fluid including but not limited to DMEM. […] A fast response time of PuraMatrix® and other peptides within body fluid may generally improve its function and response time for various clinical applications.
# (§1) Time sweep tests were performed at 1 rad/sec and at 1 Pa with 20 mm plates and 500 μm gap distance. During time sweep test of PuraMatrix® 2.5% solution, DMEM was added into the chamber surrounding the measuring plates to soak PuraMatrix® solution at 0 time point. The results are shown in FIG. 9A for PuraMatrix® 2.5% solution.
# as §1, with “IEIK13 1.5%” for “PuraMatrix® 2.5%”, “IEIK13 1.5%” for “PuraMatrix®”, “point and continuously data was recorded.” for “point.”, “9B” for “9A”
# pulmonary bulla = test: Filling of pulmonary bulla cavity through connecting bronchioles before collapse; settings: 1.0% RADA16 with 0.00585% indigo carmine
# Experimental: A method for pulmonary bullae treatment using peptide hydrogel systems distinct from the method discussed in Example 19 was tested. Here, the pulmonary bullae are generally filled prior to collapse.
# The pulmonary bulla cavity was filled with 1.0% RADA16 through the connecting bronchioles using an endotracheal tube inserted through the primary bronchus and into the lung. The bulla was then collapsed to remove the pocket of trapped air. 1.0% RADA16 mixed with 0.00585% indigo carmine was used here for visualization of the hydrogel spreading into the bullae cavity.
# [3] = Rheological properties (storage moduli) of 1% peptides before and after DMEM treatment for 2 minutes; assay type: physicochemical; settings: peptides 1%, compared between peptides
# Experimental: The effects of Dulbecco's modified Eagle's medium (DMEM) (pH 7.4) on the rheological properties of IEIK13, KLD12, and PuraMatrix® were evaluated on a rheometer (AR500, TA Instruments) with 40 mm plates. DMEM is generally a cell culture medium that contains 6.4 g/L of NaCl, 3.4 g/L NaHCO3 (sodium bicarbonate), minor amounts of other salts, various amino acids, and 4.5 g/L of glucose. The pH level of DMEM is generally 7.2±0.2 and the osmolality is 335±30 mOsm/Kg H2O; both measurements are close to human physiological fluids such as blood.
# Peptide solutions (1%) were kept at 4° C. for at least 48 hours before testing. To perform the experiment, 1 mL of peptide solution was gently pipetted and placed on the plate of the rheometer. 2 mL of DMEM solution was gently added around the peptide solution. The peptide solution was treated with DMEM for two minutes, then the media was removed, and the plates were placed at a measuring geometry gap at around 450 μm. Measurements were performed at 37° C. after 2 min of relaxation time. Frequency tests were performed from 1 rad/s to 100 rad/s at 1 Pa of oscillation stress.
# The rheological properties of the peptides (1%) were compared before and after DMEM treatment for 2 minutes, as shown in FIG. 1A. […]
# [4] = with pH adjustment, PuraMatrix® 2.5%, IEIK13 1.5% solution
substance,measurement,setting,value
Arg-Ala-Asp-Ala-Arg-Ala-Asp-Ala-Arg-Ala-Asp-Ala-Arg-Ala-Asp-Ala [PuraMatrix®],gelation kinetics by cation/anion type,[1]; 0.5% RADA16,Chlorine showed the quickest gelation and sulfate showed the slowest gelation
same,reversibility after perturbation,"[1]; 0.5% RADA16 with CaCl2 within the optimal salt concentration range, vortexing and sonication, 48 hours at room temperature",remained reversible
same,stiffness with added CaCl2,[1]; 2.5% RADA16 vs 2.5% RADA16 with CaCl2,noticeable increase in stiffness
same,effect of cations on stiffness,"[1]; RADA16 mixed with 0.005-1 M NaCl, KCl, and CaCl2, same molar concentrations",Ca provided the best enhancement of stiffness
same,mechanical properties of mixed gel,[1]; RADA16 mixed with Ringer's Solution (pH 5.3),A stiffer gel with faster gelation kinetics that maintains reversibility
same,storage modulus response on DMEM addition,[2]; [4],immediate storage modulus increase
same,filling of bullae cavity through the connecting bronchioles,pulmonary bulla,completely fill the bullae cavity
Ile-Glu-Ile-Lys-Ile-Glu-Ile-Lys-Ile-Glu-Ile-Lys-Ile [IEIK13],mechanical properties of mixed gel,[1]; 1.5% IEIK13 mixed with 0.00585% indigo carmine,"maintains stiffness, reversibility, and gelation kinetics"
same,storage modulus response on DMEM addition,[2]; [4],immediate storage modulus increase
same,storage modulus response on DMEM addition,[2]; without pH adjustment,immediate storage modulus increase
same,fold increase of storage modulus after DMEM treatment,[3],lower-fold increase of storage modulus than weaker peptide solutions
